Experimental data: the nanobody polyreactivity screen of Harvey et al. (2022)

Assay: yeast display, Sf9 membrane polyspecificity reagent, FACS + sequencing; frameworks hold sequencing errors
How it was run: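 Sorting gates, low and high (top ~1%), were placed on anti-HA fluorescence to track expression and on streptavidin fluorescence to track reagent binding. A clone's polyreactivity label is taken from the gate it came out of. The reagent was 10% biotinylated, detergent-solubilized Sf9 membrane, applied for 1 hour at 4 °C to galactose-induced yeast display cells.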

Sequence	polyreactivity (PSR sort gate)
QVQLVESGGGLVQAGGSLRLSCAASGRTSVRYAMGWYRQAPGKERELVAAISWSGGSTYYADSVKGRFTISRDNAKNTVYLQMNSLKPEDTAVYDCNAQHARGYYYWGQGTQVTVSS	low polyreactivity
QVQLVESGGGLVQAGGSLRLSCAASGLILDYNDMGWYRQAPGKERELVASITGGGSTYYADSVKGRFTISRDNAKNTVYLQMNSLKPEDTAVYYCNADPVGVYGFDLDYWGQGTQVTVSS	low polyreactivity
QVHLVESGGGLVQAGGSLRLSCAASGTTFGDYAMGWYRQAPGKERELVAAISLSAGSTYYADSVKGRFTISRDNAKNTVYLQMNSLKPEDTAVYYCAAEYQYHWAYIYYYWGQGTQVTLSS	high polyreactivity
QVQLVESGGGLVQAGGTLRLSCAASGFTYKYYGMGWYRQAPGKERELVAAITSSGSTYYADSVKGRFTISRDNAKNTVYLQMNSLKPEDTAVYYCAAEGQRWQRWRYNYWGQGTQVTVSS	high polyreactivity
QVQLVESWGGLVQAGGSLRLSCAASGFTFTWYAMGWSRQAPGKERELLAAITSSGGSTYYADSVKGRFTISRDNAKNTVYLQMNSLKPEDTAVYYCAAKSYWSGYFVGYEYWGQGTQVTVSS	high polyreactivity
QVHLVDSGGGLVQAGGSLRLSCAASGSTFYYYVMGWYRQAPGKERELVAAISSGGHPNYADSVKGRFTISRDNAKNTVYLEMNSLKPEDTAVYYCAAKARRGTLLRYGYWGQGTQVTVSS	high polyreactivity
QVQLVESGGGLVQAGGSLRLSCAASGSIFLWNAMGWYRQAPGKERELVAAISSSGGSTYYADSVKGRFTISRDNAKNTVYLQMNSLKPEDTAVYYCAAVSRSYYNSYNYWGQGTQVTVSS	high polyreactivity
QVQLVESGGCLVQAGGSQRLSCAASGIIFEGYAMRWYRQAPGRERELVAAISQSGGSTRYADSVKGRFTISRDNAKNTVYLQMNRLKAEDTAVYYCAKEVWNWGPYYYWGQGSQVTVSS	low polyreactivity
QVQLVESGGGLVQAGGSLRLSCAASGGIFSYNAMGSYRQAPGKERELVATISYSGGSTFYADSVKGRFTISRDNAKNTVYLQMNSLKPEDTAVYYCARPSYTSGYQSYDYWGQGTQVTVSS	low polyreactivity
QVQLVESGGRLVQAGGSLRLSCAPSGRIFQPNVMGWSRQAPGKERELVAAIRSGSSTYYADSVKGRFTISRDNAKYSVYLQMNSLKPEDTAVYYCAARLFLPGYTRVNYLGQGTQVTVSS	high polyreactivity
QVQLVESGGGLVQAGGSLRLSCAASGFIFRYYAMRWYRQAPGKERELVATITYGGTSTSYADSVKGRFTISRDNAKNTVYLQMNSLKPEDSAVYYCATDRVSRVRPFWNVWRSNYWGQGTQVTVSS	high polyreactivity
QVQLVESGGGLVQAGGSLRISCAASGSTFSNYAMGWYRQAPGKERELVAAINSGGRTKYADSVKGRFTISRDNAKNSVYLQMNSLKPEDTAVYYCAKRIENFSGSLAGRWYDYWGQGTQVTVSS	high polyreactivity
QVHLVESGGGLVQAGGSLRLSCAASGSTIVRYGMGWYRQAPGKERELVAAITSTGDSTYYADSVKGRFTISRDNAKNTVYLQMNSLKPEDTAVYYCATQSSVLSWWYDYWGQGTEVTVSS	low polyreactivity
QVQLVESGGGLVQAGGSLRLSCAASGSIFSGNAMGWYRQAPGKERELVAFISWNAVGTYYSDSVKGRFTISRDNAKNTVYLQLNSLKPEDTAVYYCSAVRYTGFYYWGQGTQVTVSS	high polyreactivity
QVQLVESGGGLVQAGGSLRLSCAASGYIFERNALGWYRQAPGKERELVAAINWRTGRTYYADSVKGRFTISRDYAKYNVYLQMNSLKPEDTAVYYCAKEHSTYWAQPTYSYDNWGQGTQVTVSS	low polyreactivity
QVQLVESGGGLVQAGGSLRLSCAASGSTFSTNAMGWYRQAPGKERELVASITRSGGSTYYADSVKGRFTISRDNAKNTVYLQMNSLKPEDTAVYYCNADGYYDYDYGYWGQGTQVTVSS	low polyreactivity
QVQLVESGGGLVQAGGSLRLSSAASGFTFTIYAMGWYRPAPGKERELVDTISTRGGNTYYADSVKGRFTISRDNAKNTVYLQMNSLKPEDTAVYYCAAEHWFPSAPWYYSDLHYYWGQGTQVTVSS	high polyreactivity
QVQLVESGGGLVQAGGSLRLSCAASGNTFDGYDMGWYRQAPGNKRELVAAITNTGASTYYADSVKGRCTISRDNAKNTVYLQMNSLKPEDTAVYYCNAQDSYPEDRHGMSYWGQGTQVTVSS	low polyreactivity
QVQLVESGGGLVQAGGSLRLSCGASGFTFRSYAMGWYRQAPGKEGELVATISSGGTTKYADSVQGRFTISRDNANNTVYLQMNSLKPEDTAVYYCAARTSVLGRNFNYWGQGTQVTVSS	high polyreactivity
QVQLVESGGGLVQAGGSLRLSCADSGITFKYNAMGWYRQAPGKERELVAGITWTGGTTYYADSVKGRFTISRDNAKNTVYLQMNSLNPEDTAVYYCATRNYAVVPSVRREGYYWGQGTQVTVSS	low polyreactivity
QVQLVESGGGLVHAGGSLRLSCAASGITYQAYAMGWYRQAPGKEREMVAAINDSGSSTYYADSVKGRFTISRDNAKNTVYLQMNSLKPEDTAVYYCAAYLWFWGQGTQVTVSS	low polyreactivity
QVHLVESGGGLVQAGGSLRLSCAASGRTIQTYTMGWYRQAPGKERELVAVITTRGGRTYYADSVKGRFTISRDNAKNTVYLQMNILKPEDTGVYYCNKGITTRSVRSYDYWGQGTQVTVSS	high polyreactivity

Sequence	polyreactivity (PSR sort gate)
QVQHVESGGGLVQAGGSLRLSCAASGSIFRFYAMGWYRQAPGKERELVAAISWSGGSTYYADSVKGRFTISRDNAKNTVYLQMNSLKPEDTAVYYCNTRYYGGFDSWGQGTQVTVSS	high polyreactivity
QVQLVESGVGLVQAGGSLRLSCAASGSTFWAYAMGWYRQAPGKERELVAAITTGGGRTFYADSVKGRFTISRDNAKNTVYLQMNSLKPEETAVYYFAAVSQSYRMYYWGQGTQVTVSS	low polyreactivity
QVQLVESGGGLVQAGGSLRLSCAASGYSFRLYAMGWYRQAPAKEWELVAAISKSGGSTYYADSVKGRFTISRDNANNTVYLQMNRLKPEETADYYCAADGVARYQKGQYDYWGQGTQVTVSS	high polyreactivity
QVQLVESGGGLVQAGGSLRLSCAASGSIFAYYAMGWYRQAPGKERELVAAISWSGGRTYYADSVKGRFTISRDNAKNTVYLEMNSLIPEDTAVYYCTAYFYSFYYPFPYESWGQGTQVTVSS	low polyreactivity
QVHLVESGGGLVQAGGSLRLSCAASGRIFGLYAMGWYRQAPGKERELVASISYNGGSTYYADSVKGRFTISRDNAKNTVYLQMNSLKPEDTAVYYCAASLYYYGVRFGYWGQGTQVTVSS	high polyreactivity
QVQLVESGGGLVQAGGTLRLSGAASGSTFFFNAMGWYRQAPGKEWELVAAITGSGGSTYYADSVQGRFTISRDNAKNTVYLQMNSLKPEDTAVYYCAAYGAKPSEYYWGQGTQVTVSS	low polyreactivity
QVQLVESGGGLVQAGGSLRLSCAASGRIFCVYAMGWYRQAPGKERELVAAIDTSDGSTNYADSVKGRFTISRDNAKYTVYLQMNSLKPEDTAVYYCNATDSYVPFDYWGQGTQVTVSS	low polyreactivity
QVQLVESGGGLVQAGGSLRLSCAASGRIYWYYAMAWSRQAPGKERELVAAINSGGNTNYADSVKGRFTISRDNAKNTVYLKMNSLKPEDTAVYYCAKGRWPLLLSKDLYYWGQGTQVTVSS	high polyreactivity
QVQLVESGGGLVQAGGSLRLSCAASGRTFKKYAMGWYSQAPGKERELVAAITVSGGSTYYADSVKGRFTVSRDNAKNTVYLQMNSLKPEDTAVYYCAAGSYSRYLFSLYFDFDYWGQGNQVTVSS	low polyreactivity
QVQLVESGGGLVQAGGSLRLSCAASGSIFNIYAMGWDRQAPGKERELVAAIRWTGGSTYYADSVKGRFTISRDTAKNTVDLQMTSLKPEATAVYYCAARTSRGGHYYWGPGTQVTVSS	high polyreactivity
QVQLVESGGGLVQAGGSLRLSCAASGRTFLVYARGWYRQAPGKDRELVAAISISSGSTYYADSVKGRFTISRDNAKNTVYLQMNSLKPEDTAVYYCAAVYTYVKRASENDYWGQGTQVTVSS	low polyreactivity
QDQLVESGGGLVQAGGSLRLSCAASGITFPGYPMGWYRHAPGKEREFVAAISWGGVSTYYADSVMGRFTISRDNAKNTVYLQMNSLKPEDTAVYYCNAEYPWSVVGYDYWGQGTQVTVSS	low polyreactivity
QVQLVESGGGLVQAGGSLRLSCAASGFIFFYAMGWYRQAPGKERELVAAISSRGGSTYYADSVKGRFTISRDNAKNTVYLQMNSLKPEDTAVYYCAALLWSAESDYWGQGTQVTVSS	high polyreactivity
QVQLVETGGGIVQAGGSLRLSCAAYGRILWYYAMGWYRQAPGKERELVAAITSGGSTYYADSVKGRFTLSRDIAKNTVYLQMNSLKPEDTAVYYCNAYYTYRFNYWGQGTQVTVSS	high polyreactivity
QVQLVESGGVLVQAGASLRLSCAASGFTFGFYGMGWYRQAPGKERELVARITWRSGSTYYADSVKGRFTISRDNAKNTVYLQMNSLKPEDTAVYYCNKVPSYDFLGMDYWGLGTQVTVSS	low polyreactivity
QVQLVESGGGLVQAGGSLRLSCAASGRTFYFYTLGWYRQAPGKERELVAAISWSGGSTYSADSVKGRFTISRDNAKNTVYLQLNSLKPEDTAVYYCAASSPWEQSNDQFYYWGQGTQVTVSS	low polyreactivity
QVQLVESGGGLVQAGGSLRLSSAASGFIFQKYVMGWSRQAPGKETEMVAVISRSGDSTRYADSVQGRFTISRDNAKNTVYLQMNSLKPEDTAVYYCAAASAKLTGTGYYYWGQGTQVTVSS	high polyreactivity
QVLLVESRGGLVQAGGSLRLSCAASGGTFSYYAMGWYRQAPAKERELVAAISASGGSTYYADSVKGRFTISRDNAMNTVYLQRNSLKPEDTAVYYCNARYPYYFYAGNYWGQGTQVTVSS	low polyreactivity
QVQLQESGGLVQAGVSLRLSCAASGSISGRNVMGWYLQAPVKQREFVASITDGSSSNYADSVKGRFTISRDNAKNTVYLQMNSLKPTDTAVYYCAAYGLRPKSFGNWGGGTQVTVSS	low polyreactivity
QVQLVESGGGLVQAGGSLRLSCAASGRIFSAYAMGWYRQAPGKERELVAAISSGGRTYYADSVKGRFTISRDNAKNTVYLEMYRLKPEDTAVYFCNAVALWGRDYGYWGQGTQVSVSS	high polyreactivity
HVQLVESGGGLVQAGGSLRLSCAASGFTFSGYVMGWYRQAPGKERELVAAISNSGGRTYADSVKGRFTISRDNAKNTVYLQMNSLKPEDTAVYYCAKKPGGFSQASRVDYDYWGQGTQVTVSS	low polyreactivity
